According to US20160361434A1 (COVALAB, published 2016):
Where no end group is shown, it is not given here.

T1: Recombinant microbial transglutaminase (mTG) (Streptoverticillium mobaraense, UniProt P81453 77-407)
T1 sequence (looked up): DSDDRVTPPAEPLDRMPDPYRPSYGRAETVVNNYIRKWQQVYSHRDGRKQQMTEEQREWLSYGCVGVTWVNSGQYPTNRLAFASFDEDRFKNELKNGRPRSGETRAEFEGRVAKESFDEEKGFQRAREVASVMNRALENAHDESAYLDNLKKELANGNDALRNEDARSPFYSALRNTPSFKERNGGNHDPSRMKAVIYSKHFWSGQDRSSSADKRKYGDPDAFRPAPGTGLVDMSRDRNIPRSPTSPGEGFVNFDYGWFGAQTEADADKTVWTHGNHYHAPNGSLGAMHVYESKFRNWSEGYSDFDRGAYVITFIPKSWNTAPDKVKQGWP


Molecular target: T1, Recombinant microbial transglutaminase …
Experiment: cell-based or functional assay

Binder | Kmapp
YEAQR (also: biotinylated, position not given here) [BEST3] | 0.08 µM
WPDVYSQH (also: biotin tag, position not given here) [bWH8Q7] | 11.4 µM
HDLMWPDVYSQH (also: biotin tag, position not given here) [bHH12Q11] | 3.08 µM
SPLKHQEY (also: biotin tag, position not given here) [bSY8Q6] | > 50 µM

Continued, values first:

Kmapp | Binder
0.225 µM | WPAQR (also: biotinylated, position not given here) [BEST4]
33.1 µM | DVYSQH (also: biotin tag, position not given here) [bDH6Q5]
0.114 µM | YEAQK (also: biotinylated, position not given here) [BEST2]
172 µM | LLTLPSVQEQN (also: biotin tag, position not given here) [bLN11Q8-10]
0.086 µM | YEIQR (also: biotinylated, position not given here) [BEST1]
5 µM | FWIQE (also: biotin tag, position not given here) [bFE5Q4]
14.8 µM | PLVQSH (also: biotin tag, position not given here) [bPH6Q4]
